According to patent US20260055171A1 (Regeneron, published 2026):

What was measured:
[1] = target: T1, hCD16a-Biotin (human, UniProt P08637 17-208, biotin (site not stated)); experiment: binding kinetics on hCD16a-Biotin, signal (nm) against time (sec); platform not named
T1 construct: also called CD16 (FcγRIIIa); CD16a (FcGRIIIa)
Experimental: (§1) Binding affinity of VEGF antagonists to Fc receptors CD16 (FcγRIIIa), CD64 (FcγRI), and FcRn was evaluated using hCD16-biotin, hCD64-biotin, and hFcRn-β2M-biotin.
(§2) For FcγRIIIa and FcγRI binding assessments, each construct was diluted 1:5 from a starting concentration of 50 nM, except Hex-REGN3 (IgG1) Mut1 PVA/P329A, which was evaluated only at the highest concentration. For FcRn assessments, each construct was diluted 1:5 from a starting concentration of 200 nM, except Hex-REGN3 (IgG1) Mut1 PVA/P329A, which was evaluated only at the highest concentration.

[2] = target: T2, hFcRn-β2M-Biotin (human, UniProt P55899 24-297; P61769 21-119, biotin (site and chain not stated)); experiment: binding kinetics on hFcRn-β2M-Biotin, signal (nm) against time (sec); construct diluted 1:5 from 200 nM, concentrations not labelled on the sheet; platform not named
Experimental: as §1, §2

[3] = target: T3, hCD64-Biotin (human, UniProt P12314 16-288, limits assumed, biotin (site not stated)); experiment: binding kinetics on hCD64-Biotin, signal (nm) against time (sec); construct diluted 1:5 from 50 nM, concentrations not labelled on the sheet; platform not named
T3 construct: also called CD64 (FcγRI); CD64 (FcGRI)
T3 sequence (P12314 16-288 limits assumed): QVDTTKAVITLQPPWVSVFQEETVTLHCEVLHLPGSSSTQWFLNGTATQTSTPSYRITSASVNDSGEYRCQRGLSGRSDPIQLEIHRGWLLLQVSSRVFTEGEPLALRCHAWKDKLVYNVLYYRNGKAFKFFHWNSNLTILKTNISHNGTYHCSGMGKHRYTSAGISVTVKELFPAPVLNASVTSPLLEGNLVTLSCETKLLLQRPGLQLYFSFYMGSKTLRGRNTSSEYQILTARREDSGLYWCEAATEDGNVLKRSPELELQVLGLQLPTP
Experimental: as §1, §2

[4] = target: T2, hFcRn-β2M-Biotin; experiment: binding kinetics on hFcRn-β2M-Biotin, instrument not named
Experimental: as §1, §2

[5] = target: T3, hCD64-Biotin; experiment: binding kinetics on hCD64-Biotin, instrument not named
Experimental: as §1, §2

[6] = target: T3, hCD64-Biotin; experiment: binding kinetics on hCD64-Biotin, signal (nm) against time (sec); platform not named
Experimental: as §1, §2

T1 sequence (P08637 17-208 limits assumed): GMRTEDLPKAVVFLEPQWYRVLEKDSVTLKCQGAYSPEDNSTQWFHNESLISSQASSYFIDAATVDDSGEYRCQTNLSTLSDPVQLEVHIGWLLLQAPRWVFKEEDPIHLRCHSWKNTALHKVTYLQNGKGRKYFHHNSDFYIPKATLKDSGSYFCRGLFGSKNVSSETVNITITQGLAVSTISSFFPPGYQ

binding result [2]	binding result [3]	Kd [4] [nM]	koff [4] [s⁻¹]	kon [4] [M⁻¹ s⁻¹]	Kd [5] [nM]	koff [5] [s⁻¹]	kon [5] [M⁻¹ s⁻¹]	Binder	binding result [1]	binding result [6]
binds	binds							Hex-REGN3 (IgG1) Mut2 LALAPG (Fc fusion, Hexameric VEGF antagonist designed as six dimers) SDTGRPFVEMYSEIPEIIHMTEGRELVIPCRVTSPNITVTLKKFPLDTLIPDGKRIIWDSRKGFIISNATYKEIGLLTCEATVNGHLYKTNYLTHRQTNTIIDVVLSPSHGIELSVGEKLVLNCTARTELNVGIDFNWEYPSSKHQHKKLVNRDLKTQSGSEMKKFLSTLTIDGVTRSDQGLYTCAASSGLMTKKNSTFVRVHEKDKTHTCPPCPAPEAAGGPSVFLFPPKPKDTLMCSRTPEVTCVVVDVSHEAPEVKFNWYVDGVEVHNAKTKPREEQYNSTYRVVSVLTVLHQDWLNGKEYKCKVSNKALGAGIEKTISKAKGQPREPQVYTLPPSRDELTKNQVSLTCLVKGFYPSDIAVEWESNGQPENNYKTTPPVLDSDGSFFLYSKLTVDKSRWQQGNVFSCSVMHEALHNHYTQKSLSLSPGKPTLYNVSLVMSDTAGTCY	no binding (tested: 50 nM (not printed on the sheet))	
		< 0.001	< 1e-07	31000	0.0638	0.000511	8.01e+06	Hex-REGN3 (IgG1) Mut1 LALAPG (Fc fusion, Hexamer of six dimers (VEGFR1 domain 2 - VEGFR2 domain 3 - IgG1 Fc - IgM tailpiece); also called HEX-REGN3 (IgG1) LALAPG Mut1; hexameric Hex-REGN3) SDTGRPFVEMYSEIPEIIHMTEGRELVIPCRVTSPNITVTLKKFPLDTLIPDGKRIIWDSRKGFIISNATYKEIGLLTCEATVNGHLYKTNYLTHRQTNTIIDVVLSPSHGIELSVGEKLVLNCTARTELNVGIDFNWEYPSSKHQHKKLVNRDLKTQSGSEMKKFLSTLTIDGVTRSDQGLYTCAASSGLMTKKNSTFVRVHEKDKTHTCPPCPAPEAAGGPSVFLFPPKPKDTLMISRTPEVTCVVVDVSHEDPEVKFNWYVDGVEVHNAKTKPREEQYNSTYRVVSVLTVCHQDWLNGKEYKCKVSNKALGAPIEKTISKAKGQPREPQVYTLPPSREEMTKNQVSLTCLVKGFYPSDIAVEWESNGQPENNYKTTPPVLDSDGSFFLYSKLTVDKSRWQQGNVFSCSVMHEALHNHYTQKSLDKSTGKPTLYNVSLIMSDTGGTCY	no binding (tested: 50 nM (not printed on the sheet))	
								Hex-REGN3 (IgG1) Mut1-V2 PVA/P329A (Fc fusion, Hexameric VEGF antagonist designed as six dimers; also called Hex-REGN3 (IgG1) Mut1 PVA/P329A) SDTGRPFVEMYSEIPEIIHMTEGRELVIPCRVTSPNITVTLKKFPLDTLIPDGKRIIWDSRKGFIISNATYKEIGLLTCEATVNGHLYKTNYLTHRQTNTIIDVVLSPSHGIELSVGEKLVLNCTARTELNVGIDFNWEYPSSKHQHKKLVNRDLKTQSGSEMKKFLSTLTIDGVTRSDQGLYTCAASSGLMTKKNSTFVRVHEKDKTHTCPPCPAPPVAGPSVFLFPPKPKDTLMISRTPEVTCVVVDVSHEDPEVKFNWYVDGVEVHNAKTKPREEQYNSTYRVVSVLTVCHQDWLNGKEYKCKVSNKALAAPIEKTISKAKGQPREPQVYTLPPSREEMTKNQVSLTCLVKGFYPSDIAVEWESNGQPENNYKTTPPVLDSDGSFFLYSKLTVDKSRWQQGNVFSCSVMHEALHNHYTQKSLDKSTGKPTLYNVSLVMSDTAGTCY	no binding (tested: 50 nM (not printed on the sheet))	no binding (tested: 50 nM (not printed on the sheet))
